Our source for the Kd, koff and kon values is publication PMC10663500, “High-throughput analysis system of interaction kinetics for data-driven antibody design” (Scientific Reports, 2023).

To fix the notation:
B1: toripalimab Fab L.S32A (Fab, V domains shown)
VH: QGQLVQSGAEVKKPGASVKVSCKASGYTFTDYEMHWVRQAPIHGLEWIGVIESETGGTAYNQKFKGRVTITADKSTSTAYMELSSLRSEDTAVYYCAREGITTVATTYYWYFDVWGQGTTVTVSS
VL: DVVMTQSPLSLPVTLGQPASISCRSSQSIVHANGNTYLEWYLQKPGQSPQLLIYKVSNRFSGVPDRFSGSGSGTDFTLKISRVEAEDVGVYYCFQGSHVPLTFGQGTKLEIK
notes: as the heavy chain of Sm3; light chain of Sm3 with this change; numbers count from the chain's first residue; source: Brevibacillus, culture supernatant (ammonium sulfate precipitate); not shown: 6xHis, C-terminal, kept; 6xHN, C-terminal, kept
B2: toripalimab Fab L.N58Y (Fab, V domains shown)
VH: B1 VH
VL: B1 VL with A32S, N58Y
notes: as for B1
B3: toripalimab Fab L.N35A (Fab, V domains shown)
VH: B1 VH
VL: B1 VL with A32S, N35A
notes: as for B1
B4: toripalimab Fab L.N33A (Fab, V domains shown)
VH: B1 VH
VL: B1 VL with A32S, N33A
notes: as for B1
B5: toripalimab Fab L.V56Y (Fab, V domains shown)
VH: B1 VH
VL: B1 VL with A32S, V56Y
notes: as for B1
B6: toripalimab Fab L.K55A (Fab, V domains shown)
VH: B1 VH
VL: B1 VL with A32S, K55A
notes: as for B1
B7: toripalimab Fab L.V56A (Fab, V domains shown)
VH: B1 VH
VL: B1 VL with A32S, V56A
notes: as for B1
B8: toripalimab Fab L.G34A (Fab, V domains shown)
VH: B1 VH
VL: B1 VL with A32S, G34A
notes: as for B1
B9: toripalimab Fab L.K55Y (Fab, V domains shown)
VH: B1 VH
VL: B1 VL with A32S, K55Y
notes: as for B1
B10: toripalimab Fab L.R59A (Fab, V domains shown)
VH: B1 VH
VL: B1 VL with A32S, R59A
notes: as for B1
B11: toripalimab Fab L.S57A (Fab, V domains shown)
VH: B1 VH
VL: B1 VL with A32S, S57A
notes: as for B1
B12: toripalimab Fab L.T36A (Fab, V domains shown)
VH: B1 VH
VL: B1 VL with A32S, T36A
notes: as for B1
B13: toripalimab Fab L.S32Y (Fab, V domains shown)
VH: B1 VH
VL: B1 VL with A32Y
notes: as for B1
B14: toripalimab Fab L.N33Y (Fab, V domains shown)
VH: B1 VH
VL: B1 VL with A32S, N33Y
notes: as for B1
B15: toripalimab Fab H.V50A (Fab, V domains shown)
VH: B1 VH with V50A
VL: B1 VL with A32S
notes: heavy chain of Sm3 with this change; numbers count from the chain's first residue; as the light chain of Sm3; source: Brevibacillus, culture supernatant (ammonium sulfate precipitate); not shown: 6xHis, C-terminal, kept; 6xHN, C-terminal, kept
B16: toripalimab Fab L.N35Y (Fab, V domains shown)
VH: B1 VH
VL: B1 VL with A32S, N35Y
notes: as for B1
B17: toripalimab Fab L.S57Y (Fab, V domains shown)
VH: B1 VH
VL: B1 VL with A32S, S57Y
notes: as for B1
B18: toripalimab Fab L.T36Y (Fab, V domains shown)
VH: B1 VH
VL: B1 VL with A32S, T36Y
notes: as for B1
B19: toripalimab Fab L.L38A (Fab, V domains shown)
VH: B1 VH
VL: B1 VL with A32S, L38A
notes: as for B1
B20: toripalimab Fab L.N58A (Fab, V domains shown)
VH: B1 VH
VL: B1 VL with A32S, N58A
notes: as for B1
B21: toripalimab Fab L.G34Y (Fab, V domains shown)
VH: B1 VH
VL: B1 VL with A32S, G34Y
notes: as for B1

Substitutions are numbered along the chain they refer to.

The target in one experiment is T1, human programmed cell death protein 1 (hPD-1) C93S (aa 24-167) (Homo sapiens, UniProt Q15116, C93S).
T1 construct: made as a fusion with a TEV site and human Fc; the Fc was cut off with TEV protease; source: Expi293F, purified (Protein A, TEV cleavage of Fc, SEC; monomer fractions); not shown: Fc (human), C-terminal, cleaved
T1 sequence (Q15116 24-167 C93S): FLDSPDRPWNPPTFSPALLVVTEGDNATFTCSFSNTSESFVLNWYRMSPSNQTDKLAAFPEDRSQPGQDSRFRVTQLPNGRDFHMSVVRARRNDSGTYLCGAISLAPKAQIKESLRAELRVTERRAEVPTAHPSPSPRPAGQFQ
The experiment can be described thus: SPR; Carterra LSA; Fab from the ammonium sulfate precipitate of the culture supernatant immobilised on a NiHC200M chip; hPD-1 (1-1024 nM) or mPD-1-Fc (4-1024 nM) as analyte, fourfold dilution series, no regeneration; HBS-EP pH 7.4, 25 °C; medians over the spots of a construct, KD = koff/kon. The following applies: one partner purified. The essentials:
(§1)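 Human PD-1 (1–1024 nM) or mouse PD-1-Fc (4–1024 nM), in fourfold series, was flowed without regeneration over Fabs captured in duplicate on a NiHC200M chip (Carterra LSA, 25 °C), using 10 min association and 5 min dissociation. The Fabs had been recovered from Brevibacillus culture supernatants by ammonium sulfate precipitation and redissolved in HBS-EP. For binding constants, KD was defined as koff/kon from per-construct medians, with rates fitted by the kdka model under slow- or fast-dissociation settings (best fit) and unconfirmed binders set to kon 10^3 […] and koff 10^−2 s^−1.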
For orientation: Surface plasmon resonance follows binding to a sensor surface in real time, without labels.
Regarding B1, the Kd was under 1.35 nM, the koff was under 1e-05 s⁻¹ and the kon was determined as 7410 M⁻¹ s⁻¹.

In the case of B2, the Kd is under 1.62 nM, the koff was under 1e-05 s⁻¹ and the kon came to 6150 M⁻¹ s⁻¹.

B3: the Kd is under 1.31 nM, the koff was under 1e-05 s⁻¹ and the kon is 7640 M⁻¹ s⁻¹.

Take B4: the Kd was under 0.341 nM, the koff is under 1e-05 s⁻¹ and the kon was found to be 29300 M⁻¹ s⁻¹.

Molecule B5 came in with a Kd of under 1.47 nM, a koff of under 1e-05 s⁻¹ and a kon of 6790 M⁻¹ s⁻¹.

With B6, the Kd was under 1.18 nM, the koff was under 1e-05 s⁻¹ and the kon worked out at 8480 M⁻¹ s⁻¹.

The molecule B7 came in with a Kd of under 0.489 nM, a koff of under 1e-05 s⁻¹ and a kon of 20400 M⁻¹ s⁻¹.

B8 showed a Kd of 2.35 nM, a koff of 4.8e-05 s⁻¹ and a kon of 20500 M⁻¹ s⁻¹.

B9 had a Kd of 1.4 nM, a koff of 1.3e-05 s⁻¹ and a kon of 9280 M⁻¹ s⁻¹.

On to B10, for which the Kd was under 0.377 nM, the koff was under 1e-05 s⁻¹ and the kon amounted to 26600 M⁻¹ s⁻¹.

Turning to B11, the Kd is under 0.698 nM, the koff was under 1e-05 s⁻¹ and the kon was found to be 14300 M⁻¹ s⁻¹.

On to B12, for which the Kd is under 1.51 nM, the koff was under 1e-05 s⁻¹ and the kon was found to be 6610 M⁻¹ s⁻¹.

In turn, B13 displayed a Kd of under 0.678 nM, a koff of under 1e-05 s⁻¹ and a kon of 14800 M⁻¹ s⁻¹.

As for B14, the equilibrium dissociation constant (Kd) is under 0.585 nM, the koff was under 1e-05 s⁻¹ and the on-rate constant (kon) came to 17100 M⁻¹ s⁻¹.

Consider B15, for which the Kd is 1.66 nM, the koff came to 2.65e-05 s⁻¹ and the kon turned out to be 15900 M⁻¹ s⁻¹.

B16 came in with a Kd of under 0.431 nM, a koff of under 1e-05 s⁻¹ and a kon of 23200 M⁻¹ s⁻¹.

B17: the Kd was under 0.338 nM, the koff was under 1e-05 s⁻¹ and the kon was found to be 29500 M⁻¹ s⁻¹.

B18 showed a Kd of under 0.372 nM, a koff of under 1e-05 s⁻¹ and a kon of 26900 M⁻¹ s⁻¹.

On to B19, for which the Kd is under 1.11 nM, the koff is under 1e-05 s⁻¹ and the kon was 8980 M⁻¹ s⁻¹.

As for B20, the Kd is under 1.31 nM, the koff is under 1e-05 s⁻¹ and the kon was found to be 7630 M⁻¹ s⁻¹.

The molecule B21 gave a Kd of under 0.445 nM, a koff of under 1e-05 s⁻¹ and a kon of 22500 M⁻¹ s⁻¹.

A further experiment concerns the target T2, mouse programmed cell death protein 1 Fc fusion protein (mPD-1-Fc), mPD-1 C60S (aa 25-167) (Mus musculus, UniProt Q02242, stabilised).
T2 construct: not cleaved; source: Expi293F, purified (Protein A, SEC; dimeric fraction); not shown: Fc (human), C-terminal, kept
The description is as above. Conditions: one partner purified. In outline: as §1
As for B1, binding was characterised by a dissociation constant (Kd) of 185 nM, the koff is 0.0077 s⁻¹ and the kon is 41600 M⁻¹ s⁻¹.

B2 came in with a Kd of 226 nM, a koff of 0.00916 s⁻¹ and a kon of 40500 M⁻¹ s⁻¹.

Take B3: binding was put at a Kd of 189 nM, the koff amounted to 0.00781 s⁻¹ and the kon is 41200 M⁻¹ s⁻¹.

Regarding B4, the affinity, expressed as Kd, was 278 nM; the koff came to 0.0135 s⁻¹; the kon came to 48400 M⁻¹ s⁻¹.

As for B5, the Kd stood at 290 nM, the koff is 0.0104 s⁻¹ and the kon came to 35800 M⁻¹ s⁻¹.

In turn, B6 showed a Kd of 182 nM, a koff of 0.00821 s⁻¹ and a kon of 45200 M⁻¹ s⁻¹.

For B7, binding was characterised by a dissociation constant (Kd) of 202 nM, the koff is 0.00784 s⁻¹ and the kon came out at 38700 M⁻¹ s⁻¹.

In turn, B8 came in with a dissociation constant (Kd) of 202 nM, an off-rate constant (koff) of 0.00961 s⁻¹ and a kon of 47500 M⁻¹ s⁻¹.

For B9, binding was characterised by a dissociation constant (Kd) of 235 nM, the koff was determined as 0.0094 s⁻¹ and the kon amounted to 40000 M⁻¹ s⁻¹.

Consider B10, for which the Kd came out at 130 nM, the koff amounted to 0.00551 s⁻¹ and the on-rate (kon) turned out to be 42400 M⁻¹ s⁻¹.

As to B11, binding was put at a Kd of 209 nM, the koff stood at 0.00805 s⁻¹ and the kon was 38500 M⁻¹ s⁻¹.

B12 gave a Kd of 331 nM, a koff of 0.0155 s⁻¹ and a kon of 46700 M⁻¹ s⁻¹.

B13 gave a Kd of 95.6 nM, a koff of 0.00346 s⁻¹ and a kon of 36100 M⁻¹ s⁻¹.

B14 displayed a Kd of 192 nM, a koff of 0.00979 s⁻¹ and a kon of 50900 M⁻¹ s⁻¹.

For B15, binding was put at a Kd of 728 nM, the koff was 0.0237 s⁻¹ and the kon was determined as 32500 M⁻¹ s⁻¹.

B16: the Kd came to 194 nM, the koff worked out at 0.00881 s⁻¹ and the kon is 45500 M⁻¹ s⁻¹.

In the case of B17, the affinity, expressed as Kd, was 119 nM; the koff stood at 0.0054 s⁻¹; the kon came to 45300 M⁻¹ s⁻¹.

The molecule B18 displayed a Kd of 164 nM, a koff of 0.00757 s⁻¹ and a kon of 46100 M⁻¹ s⁻¹.

B19 gave a Kd of 121 nM, a koff of 0.00533 s⁻¹ and a kon of 44000 M⁻¹ s⁻¹.

In turn, B20 returned a Kd of 186 nM, a koff of 0.00793 s⁻¹ and a kon of 42600 M⁻¹ s⁻¹.

Molecule B21 registered a Kd of 154 nM, a koff of 0.00613 s⁻¹ and a kon of 39900 M⁻¹ s⁻¹.

A word on the Kd: it is a measure of binding affinity in units of concentration. As a reminder, the koff is the rate constant with which the complex falls apart. High values mean fast dissociation, low ones slow dissociation. One may read the kon as the rate constant with which the complex forms. A lower kon goes with slow association.
